Here are results for one substance from patent US20240091270A1.

In this assay the target is murine CD47 on mouse pancreatic beta islet cells (MIN6) (murine) (UniProt Q61735). Briefly: cell-based or functional assay.
Chain of UniProt Q61735 (Q61735 19-303): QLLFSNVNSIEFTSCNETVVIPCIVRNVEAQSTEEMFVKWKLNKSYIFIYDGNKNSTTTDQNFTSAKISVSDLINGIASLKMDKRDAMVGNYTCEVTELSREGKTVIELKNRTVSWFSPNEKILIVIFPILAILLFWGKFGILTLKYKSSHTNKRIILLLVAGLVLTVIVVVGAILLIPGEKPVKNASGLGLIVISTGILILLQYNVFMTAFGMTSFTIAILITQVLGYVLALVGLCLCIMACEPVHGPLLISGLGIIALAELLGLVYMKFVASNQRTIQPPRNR

The substance “anti-CD47 blocking antibody (clone MIAP301, SC-12731, Santa Cruz Inc.)” gave a relative increase in insulin protein content in glucose stimulated mouse pancreatic beta islet cells relative to vinculin (SDS-PAGE band density) above 2 fold.
